Source: paper PMC3906829

Molecular target: membrane-embedded MraY from Aquifex aeolicus used for structure-guided disulfide cross-bridge experiments (Aquifex aeolicus) (UniProt O66465)
Assay: cross-linking

membrane-embedded MraY from Aquifex aeolicus used for structure-guided disulfide cross-bridge experiments (from UniProt O66465 1-359) (enzyme)
stoichiometry N: 2
